The source of these data is US20140120109A1 (Regeneron, published 2014).

First the molecules themselves.
T1: human TL1A, soluble, CHO-expressed, residues 72-251 of SEQ ID NO:244 with N-terminal His6-tag (human, UniProt O95150 72-251)
T1 construct: also called hTL1A; hTL1A (CHO)
T1 sequence: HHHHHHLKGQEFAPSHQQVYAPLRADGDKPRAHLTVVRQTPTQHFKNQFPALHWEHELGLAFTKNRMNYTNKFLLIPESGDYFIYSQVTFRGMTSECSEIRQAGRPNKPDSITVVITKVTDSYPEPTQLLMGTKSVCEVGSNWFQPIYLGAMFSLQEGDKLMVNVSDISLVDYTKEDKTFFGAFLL

T2: cynomolgus monkey TL1A, soluble, CHO-expressed, residues 72-251 of SEQ ID NO:248 with N-terminal His6-tag (cynomolgus monkey (Macaca fascicularis), UniProt O95150 72-251 (human entry))
T2 construct: also called MfTL1A; MfTL1A (CHO)
T2 chain: T1 sequence with F45L, I84V

T3: full length human TL1A expressed on HEK293 cells (human, UniProt O95150 1-251)
T3 sequence: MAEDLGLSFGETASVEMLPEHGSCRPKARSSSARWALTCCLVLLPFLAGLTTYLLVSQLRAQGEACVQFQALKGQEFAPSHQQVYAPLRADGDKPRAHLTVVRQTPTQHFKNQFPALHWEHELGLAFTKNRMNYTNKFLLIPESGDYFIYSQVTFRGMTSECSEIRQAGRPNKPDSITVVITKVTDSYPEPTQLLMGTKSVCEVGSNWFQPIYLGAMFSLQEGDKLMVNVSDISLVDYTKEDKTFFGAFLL

T4: full-length Fhm, human TL1A(Q167R), expressed on HEK293 cells (human, UniProt O95150 1-251)
T4 sequence: T3 sequence with Q167R

T5: full-length cynomolgus monkey TL1A expressed on HEK293 cells (cynomolgus monkey (Macaca fascicularis), UniProt O95150 1-251 (human entry))
T5 chain: T3 sequence with R34C, F69L, A71D, F110L, I149V

B1: H4H1804N (antibody, human IgG4 S228P, V domains shown)
VH: QVQLHQWGAGLLKPSETLSLTCAVSGVSFSDYHWAWIRQSPGKGLEWIGDINHRGRTNYNPSLKSRVTISLDTSGNPFSLKLTSVTAADTAVYYCARDFPNWVFDSWGQGILVTVSS
VL: EIVLSQSPGTLSLSPGERATLSCRASQSVSSSFLAWYQQYPGQAPRLLIYGASRRATGIPDRFRGSGSGTDFTLTISRLEPEDFAVYYCQQYGSSPLTFGGGTKVENK
notes: human IgG4(S108P) form of H2M1804N
B2: H4H1681N (antibody, human IgG4 S228P, V domains shown)
VH: EVQLLESGGGLVQPGKSLRLSCAVSGFTFSTYGMNWVRQAPGKGLEWVSSISGTGRTTYHADSVQGRFTVSRDNSKNILYLQMNSLRADDTAVYFCTKERGDYYYGVFDYWGQGTLVTVSS
VL: DIQMTQSPSTLSASVGDRVTITCRASQTISSWLAWYQQTPEKAPKLLIYAASNLQSGVPSRFSGSGSGTEFTLTISSLQPDDFATYYCQQYHRSWTFGQGTKVEIT
B3: H4H1805N (antibody, human IgG4 S228P, V domains shown)
VH: QVQLQQWGAGLLKPSETLSLTCAVYGGSFTGFYWSWIRQPPGKGLEWIGEINHRGNTNYNPSLKSRVTMSVDTSKNQFSLNMISVTAADTAMYFCASPFYDFWSGSDYWGQGTLVTVSS
VL: DIMLTQTPLTSPVTLGQPASISCKSSQSLVHSDGNTYLSWLQQRPGQPPRLLFYKISNRFSGVPDRFSGSGAGTDFTLKISRVEAEDVGVYYCMQATQFPLTFGGGTKVEIK
notes: human IgG4(S108P) form of H2M1805N
B4: H4H1752P (antibody, human IgG4 S228P, V domains shown)
VH: EVQLVESGGGLVQPGGSLRLSCSASGFTFSKYVMTWVRQAPGKGLEWVSAIGPTGRTTEYADSVQGRFTISRDNSMNTVFLHLNSLTAEDTAEYYCAKMFDWNYDVYFDSWGQGTLVTVSS
VL: DIQMTQSPSILSASVGDRVTITCRTSQSISNWLAWYQQKPGKAPNLLIYKASSLESGVPSRFSGSGSGTEFTLTISSLQPDDFATYYCQQYYRYWTFGQGTKVEIK
B5: H4H1704N (antibody, human IgG4 S228P, V domains shown)
VH: EVQLVESGGGLVQPGGSLRLSCAVSGFTFSSYWMSWVRQAPGKGLEWVANIKEDGSEKNYVDSVKGRFTLSSDNAKNSLYLQMNSLRAEDTAVYYCAREDYDSYYKYGMDVWGQGTAVIVSS
VL: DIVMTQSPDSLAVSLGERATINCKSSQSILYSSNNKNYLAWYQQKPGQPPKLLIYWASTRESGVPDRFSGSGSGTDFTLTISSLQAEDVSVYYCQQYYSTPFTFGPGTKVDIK
notes: human IgG4(S108P) form of H2M1704N
B6: H4H1818N (antibody, human IgG4 S228P, V domains shown)
VH: RLQLVESGGGLVKPGGSLKLSCAASGFTISDYYMSWIRQAPGKGLEWVSYIGGSGSTIYYADSVKGRFTISRDNAKNSLYLQMNSLRAEDTAVYYCAREDADSYYYYGMDVWGQGTTVTVSS
VL: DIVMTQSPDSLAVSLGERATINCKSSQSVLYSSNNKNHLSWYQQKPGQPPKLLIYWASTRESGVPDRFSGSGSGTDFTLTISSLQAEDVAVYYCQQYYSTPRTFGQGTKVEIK
notes: human IgG4(S108P) form of H2M1818N
B7: H4H1817N (antibody, human IgG4 S228P, V domains shown)
VH: QVQLQQWGAGLLKPSETLSLTCAVSGGSFSDYFWTWIRQPPGKGLEWIGEISHSGRTNYNPSLKSRVTISVDTSMSQFSLKMTSVTAADSAVYYCARDYPNWVFDYWGQGTLVTVSS
VL: EIELTQSPGTLSLSPGEGATLSCRASQSVFNSYLAWYQQKPGQAPRLLIYGASRRATGIPDRFSGSGSGTDFTLTISRLEPGDFAVYFCQQYGNSPLTFGGGTKVEIK
notes: human IgG4(S108P) form of H2M1817N
B8: H4H1750P (antibody, human IgG4 S228P, V domains shown)
VH: QVQLVESGGGVVQPGRSLRLSCVASGFTFSNYGMHWVRQAPGKGLEWVAVISYDGNNDLYSDSVKGRFTISRDNAKNALSLQMTSLRAEDTAVYYCARDSTMTPYYYHGIDVWGQGTTVTVSA
VL: DIQMTQSPSSLSASVGDRVTITCRASQDIRNDLGWYQQKPGKAPKRLIYAASSLQSGVPSRFSGSGSGTDFTLTISSLQPEDFATYYCLQHNSYPPTFGQGTKVEIK

Where a chain is given by its changes, count along the chain named. Names may count otherwise.

The target of one test is T1, human TL1A, soluble, CHO-expressed, …. In words: SPR 25C, mAb captured. Put shortly:
(§1)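 Biacore T100 SPR with captured mAb and soluble TL1A/Fhm analyte; ka and kd fitted to a 1:1 model assuming monomeric TL1A. KD = kd/ka; t1/2 (min) = ln2/(60·kd).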
By Kd is commonly meant the equilibrium constant for the complex coming apart. Molecule B1 registered a Kd of 0.291 nM and a t1/2 of 0.85 h.
The like results for B2 were, in that order, 0.263 nM and 0.6 h.
The like results for B3 were, in that order, 0.365 nM and 1.22 h.
The like results for B4 were, in that order, 0.156 nM and 3.28 h.
Regarding B5, the Kd worked out at 0.0392 nM and the t1/2 worked out at 7.55 h.
Take B6: binding was characterised by a dissociation constant (Kd) of 0.124 nM and the t1/2 turned out to be 2 h.
The like results for B7 were, in that order, 0.321 nM and 1.72 h.

For the next test, the target named is T2, cynomolgus monkey TL1A, soluble, …. In words: SPR 25C, mAb captured. Put shortly:
as §1
B1 returned a Kd of 0.264 nM and a t1/2 of 0.817 h.
In turn, B2 showed a Kd of 0.404 nM and a t1/2 of 0.417 h.
With B3, binding was put at a Kd of 0.342 nM and the t1/2 turned out to be 1.23 h.
The molecule B4 had a Kd of 0.213 nM and a t1/2 of 2.32 h.
For B5, in that order: 0.0599 nM and 4.6 h.
Take B6: the Kd turned out to be 0.119 nM and the t1/2 turned out to be 2.03 h.
For B7, in that order: 0.356 nM and 1.53 h.

Another test has as its target T3, full length human TL1A expressed on …. In words: cell-based or functional assay.
Turning to B1, the “IC50, reporter + 10,000 TL1A cells” value came to 0.56 nM.
As to B2, the “IC50, reporter + 10,000 TL1A cells” value came out at 0.66 nM.
The same measure, in the same setting: the value for B3 was 0.82 nM; that for B4 was 1.99 nM; that for B5 was 1.11 nM.
On the same count and under the same terms, with B6 the figure was 1.54 nM.
As to B8, the “IC50, reporter + 10,000 TL1A cells” value amounted to 12.8 nM.
Same read-out and setting: with B7 the figure was 1.11 nM.

Another test concerns the target T4, full-length Fhm, human TL1A(Q167R), …. In words: cell-based or functional assay.
B1: the “IC50, reporter + 10,000 TL1A cells” value came out at 1.23 nM.
Regarding B3, the “IC50, reporter + 10,000 TL1A cells” value is 54.1 nM.
On to B4, for which the “IC50, reporter + 10,000 TL1A cells” value stood at 138 nM.
For the molecule B5, the “IC50, reporter + 10,000 TL1A cells” value worked out at 1.58 nM.
Same read-out and setting: with B6 the figure was 1.42 nM.
In the case of B8, the “IC50, reporter + 10,000 TL1A cells” value was 29.5 nM.
Same read-out and setting: the value for B7 was 0.62 nM.

Another test has as its target T5, full-length cynomolgus monkey TL1A …. In words: cell-based or functional assay.
Turning to B1, the “IC50, reporter + 10,000 TL1A cells” value was 2.23 nM.
On the same count and under the same terms, the value for B2 was 3.07 nM; that for B3 was 1.93 nM.
The same measure, in the same setting: the value for B4 was 11.7 nM; that for B5 was 3.76 nM.
The same measure, in the same setting: with B6 the figure was 4.29 nM.
B8: the “IC50, reporter + 10,000 TL1A cells” value is 107 nM.
With B7, the “IC50, reporter + 10,000 TL1A cells” value was 5.04 nM.

In a further test the target is T2, cynomolgus monkey TL1A, soluble, …. In words: ELISA, blocks MfTL1A (500 pM) binding hDR3-Fc. The procedure: The ability of antibodies to block human TL1A binding to its cognate receptors, the DR3 and DcR3 receptors, was measured using a competition sandwich ELISA. In addition, blocking of a human TL1A variant FHM (human TL1A Q167R) and the cynomolgus monkey (Macaca fascicularis) TL1A (MfTL1A) protein binding to the human DR3 or DcR3 receptors was measured in the same manner. Constant amounts of biotinylated human TL1A or FHM (both expressed with a 6-His tag in CHO cells) or biotinylated MfTL1A (expressed in CHO cells) were separately titrated with varying amounts of antibodies. The antibody-protein complexes were incubated in solution (1 hr, 25° C.) and then transferred to microtiter plates coated with human DR3 (hDR3) or human DcR3 (hDcR3) expressed as human IgG1 Fc fusion proteins. After one hour at 25° C. the wells were washed, and bound human or monkey TL1A was detected with streptavidin conjugated with horseradish peroxidase (HRP). Wells were developed with a TMB solution to produce a colorimetric reaction and quenched with aqueous sulfuric acid before reading absorbance at 450 nm on a Perkin-Elmer Victor X5 plate reader. A sigmoidal dose-response curve was fit to the data using the Prism™ data analysis package. […] Both fully human anti-hTL1A mAbs and comparator antibodies, i.e., control mAb1 (an anti-hTL1A antibody with heavy and light chain variable domains having the amino acid sequences corresponding to SEQ ID NOS:21 and 27, respectively, of US 2009/0280116) and control mAb3 (an anti-hTL1A antibody with heavy and light chain variable domains having the amino acid sequences corresponding to SEQ ID NOS:57 and 48, respectively, of US 2009/0280116), were included in the study. NB: No binding under the conditions tested; NT: Not tested. Concentrations of biotinylated soluble ligands: (1) 150 pM; (2) 500 pM; (3) 10 pM; and (4) 50 pM.
Background: In an ELISA, binding on a coated surface is turned into a signal by an enzyme label.
For orientation: IC50 means the concentration at which inhibition is half-maximal. In the case of B1, the IC50 stood at 0.071 nM.
Still for that read-out and setting: with B2 the figure was 0.141 nM.
Regarding B3, the IC50 turned out to be 0.026 nM.
Still for that read-out and setting: with B4 the figure was 0.11 nM; with B5, 0.042 nM.
The same measure, in the same setting: the value for B6 was 0.123 nM; that for B7 was 0.101 nM.
